This is an account of results in patent US20250179210A1 (Merck KGaA, published 2025).

Broadly, the EC50 is the concentration needed to bring the measured effect to its halfway point. The EC50 (read off the curve) is the concentration needed to bring the measured effect to its halfway point.

Test [1] deals with T1, human CEACAM5 expressed on human cancer cell lines (MKN-45, NCI-H441, SK-CO-1, SNU-16, LS174T) (human, UniProt P06731 35-685).
T1 construct: Endogenous protein on cells; also called MKN45 cell line expressing human CEACAM5; CEACAM5-positive cell lines
T1 sequence: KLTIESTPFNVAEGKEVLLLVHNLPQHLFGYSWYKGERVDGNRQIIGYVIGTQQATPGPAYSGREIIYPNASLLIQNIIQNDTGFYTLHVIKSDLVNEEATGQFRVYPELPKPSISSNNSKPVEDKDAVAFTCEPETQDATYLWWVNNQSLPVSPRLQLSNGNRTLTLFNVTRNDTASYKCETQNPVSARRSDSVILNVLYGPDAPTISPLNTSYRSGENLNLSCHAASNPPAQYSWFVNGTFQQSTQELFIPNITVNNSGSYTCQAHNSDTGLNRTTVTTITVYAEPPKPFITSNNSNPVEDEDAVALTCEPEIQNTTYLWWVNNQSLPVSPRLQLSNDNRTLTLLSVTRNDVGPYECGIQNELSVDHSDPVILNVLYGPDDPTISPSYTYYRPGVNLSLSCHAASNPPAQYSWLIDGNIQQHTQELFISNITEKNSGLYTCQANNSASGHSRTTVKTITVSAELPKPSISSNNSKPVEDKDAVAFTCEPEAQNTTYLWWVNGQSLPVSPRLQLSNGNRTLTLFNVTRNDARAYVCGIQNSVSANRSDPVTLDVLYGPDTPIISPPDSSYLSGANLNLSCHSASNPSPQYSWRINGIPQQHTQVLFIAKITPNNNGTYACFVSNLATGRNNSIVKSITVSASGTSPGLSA
Kind of test: cellular binding on MKN45 cells (FIG. 2).

Test [2] deals with T2, recombinant human CEACAM5 N-A1-B1 domain (Syngene) (human, UniProt P06731 35-320).
T2 construct: also called rhN-A1-B1
T2 sequence: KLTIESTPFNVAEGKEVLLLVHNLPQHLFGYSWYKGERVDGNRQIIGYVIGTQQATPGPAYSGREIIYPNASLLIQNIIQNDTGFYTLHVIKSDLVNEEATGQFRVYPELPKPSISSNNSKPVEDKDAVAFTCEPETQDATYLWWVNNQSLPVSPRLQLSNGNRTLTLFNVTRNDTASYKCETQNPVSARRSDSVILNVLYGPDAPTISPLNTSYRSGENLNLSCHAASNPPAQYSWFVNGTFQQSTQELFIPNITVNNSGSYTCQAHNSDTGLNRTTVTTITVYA
Briefly: ELISA on coated antigen, antibody titrated.

The target in test [3] is T3, recombinant human CEACAM5 A2-B2 domain (Syngene) (human, UniProt P06731 321-498).
T3 construct: also called rhA2-B2 domain
T3 sequence: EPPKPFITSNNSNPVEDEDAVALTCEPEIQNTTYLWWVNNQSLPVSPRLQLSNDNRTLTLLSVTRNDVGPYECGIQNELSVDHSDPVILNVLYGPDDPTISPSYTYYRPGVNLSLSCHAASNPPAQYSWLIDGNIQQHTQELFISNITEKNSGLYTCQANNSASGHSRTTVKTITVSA
Briefly: ELISA on coated antigen, antibody titrated. For orientation: In an ELISA, binding on a coated surface is turned into a signal by an enzyme label.

For test [4], the target named is T4, recombinant human CEACAM5 A3-B3 domain (Syngene) (human, UniProt P06731 499-685).
T4 construct: also called rhA3-B3
T4 sequence: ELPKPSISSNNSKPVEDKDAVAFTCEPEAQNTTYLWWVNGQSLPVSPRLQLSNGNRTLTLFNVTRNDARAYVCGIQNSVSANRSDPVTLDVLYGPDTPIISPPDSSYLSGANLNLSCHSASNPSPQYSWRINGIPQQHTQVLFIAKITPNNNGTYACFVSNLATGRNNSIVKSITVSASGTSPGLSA
Kind of test: ELISA on coated antigen, antibody titrated.

Test [5] concerns the target T5, recombinant human (rh) CEACAM5 ECD (Syngene) (human, UniProt P06731 35-685).
T5 sequence: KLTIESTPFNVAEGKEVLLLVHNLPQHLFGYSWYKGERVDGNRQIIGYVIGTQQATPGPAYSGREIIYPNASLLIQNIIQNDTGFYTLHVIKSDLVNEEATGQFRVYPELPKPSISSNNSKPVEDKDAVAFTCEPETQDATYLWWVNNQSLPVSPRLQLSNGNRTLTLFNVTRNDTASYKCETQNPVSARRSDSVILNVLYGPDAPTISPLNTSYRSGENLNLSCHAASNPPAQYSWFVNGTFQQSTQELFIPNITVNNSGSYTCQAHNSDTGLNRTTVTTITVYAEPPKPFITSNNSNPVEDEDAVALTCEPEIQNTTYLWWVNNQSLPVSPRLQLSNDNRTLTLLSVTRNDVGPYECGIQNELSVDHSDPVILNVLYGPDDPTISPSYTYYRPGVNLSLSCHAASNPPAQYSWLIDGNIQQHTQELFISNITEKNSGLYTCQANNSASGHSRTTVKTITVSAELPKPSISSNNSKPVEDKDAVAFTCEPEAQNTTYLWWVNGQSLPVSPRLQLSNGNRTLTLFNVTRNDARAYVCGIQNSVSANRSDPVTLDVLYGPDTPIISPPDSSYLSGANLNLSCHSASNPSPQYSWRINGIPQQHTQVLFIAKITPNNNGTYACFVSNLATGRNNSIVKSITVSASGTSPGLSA
Kind of test: ELISA on coated antigen, antibody titrated.

The target of test [6] is T6, BSA (bovine serum albumin) (bovine, UniProt P02769 25-607).
T6 construct: Negative control; also called unrelated protein
Briefly: ELISA on coated antigen, antibody titrated.

In test [7] the target is T3, recombinant human CEACAM5 A2-B2 domain …. Kind of test: ELISA, 1 µg/ml coated antigen, antibody titrated; rhA2-B2 domain coated.
The target of test [8] is T1, human CEACAM5 expressed on human cancer …. Briefly: flow cytometry (MFI), titration on MKN-45 cells. The method, then:
The antibody's ability to bind its target protein on cells was determined by titrating the antibody on cells that express the target (e.g. human CEACAM5) and measuring the fluorescence MFI of the cells. Model cells for antibody binding comparison were the MKN45 cell line expressing human CEACAM5 as well as a CHO cell line expressing mfCEACAM5. Titration was done with 10-point ×4 dilution, curve starting concentration 2000 nM in assay buffer (PBS×1 containing 1% BSA).
In general terms: In flow cytometry, cells or beads pass a laser one at a time.

Test [9] has as its target T5, recombinant human (rh) CEACAM5 ECD …. Kind of test: ELISA, 1 µg/ml coated antigen, antibody titrated; rhCEACAM5 ECD coated.

T6 sequence (P02769 25-607 limits assumed): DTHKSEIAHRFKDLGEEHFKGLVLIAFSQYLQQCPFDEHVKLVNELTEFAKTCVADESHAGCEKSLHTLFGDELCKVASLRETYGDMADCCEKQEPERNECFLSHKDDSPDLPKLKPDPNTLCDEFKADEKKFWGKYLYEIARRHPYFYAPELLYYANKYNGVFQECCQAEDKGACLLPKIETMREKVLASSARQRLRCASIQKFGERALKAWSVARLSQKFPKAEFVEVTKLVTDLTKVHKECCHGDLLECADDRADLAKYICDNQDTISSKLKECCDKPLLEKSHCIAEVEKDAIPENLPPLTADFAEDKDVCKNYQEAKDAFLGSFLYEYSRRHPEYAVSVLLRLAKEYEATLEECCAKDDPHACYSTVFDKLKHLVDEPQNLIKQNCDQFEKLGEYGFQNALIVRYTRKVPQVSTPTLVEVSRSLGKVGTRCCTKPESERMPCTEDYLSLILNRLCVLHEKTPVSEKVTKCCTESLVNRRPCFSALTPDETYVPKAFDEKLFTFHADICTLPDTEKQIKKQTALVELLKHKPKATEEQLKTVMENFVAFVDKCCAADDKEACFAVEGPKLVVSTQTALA

B1: mAb1 (final sequence-optimized anti-CEACAM5 antibody so8G4) (antibody, human IgG1, kappa)
heavy: EVQLQESGPGLVKPSQTLSLTCTVSDGSVSRGGYYLTWIRQHPGKGLEWIGYIYYSGSTYFNPSLRSRVTMSVDTSKNQFSLKLSSVTAADTAVYYCARGIAVAPFDYWGQGTLVTVSSASTKGPSVFPLAPSSKSTSGGTAALGCLVKDYFPEPVTVSWNSGALTSGVHTFPAVLQSSGLYSLSSVVTVPSSSLGTQTYICNVNHKPSNTKVDKRVEPKSCDKTHTCPPCPAPPVAGPSVFLFPPKPKDTLMISRTPEVTCVVVDVSHEDPEVKFNWYVDGVEVHNAKTKPREEQYNSTYRVVSVLTVLHQDWLNGKEYKCKVSNKALPSSIEKTISKAKGQPREPQVYTLPPSREEMTKNQVSLTCLVKGFYPSDIAVEWESNGQPENNYKTTPPVLDSDGSFFLYSKLTVDKSRWQQGNVFSCSVMHEALHNHYTQKSLSLSPG
light: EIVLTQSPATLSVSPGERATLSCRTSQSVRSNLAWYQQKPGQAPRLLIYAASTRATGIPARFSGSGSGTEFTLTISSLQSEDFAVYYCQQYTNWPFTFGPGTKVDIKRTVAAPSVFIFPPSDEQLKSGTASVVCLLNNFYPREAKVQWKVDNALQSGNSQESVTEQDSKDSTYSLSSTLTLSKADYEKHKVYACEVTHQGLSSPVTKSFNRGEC
notes: Labelled with pHrodo in the internalization assay
Regarding B1, the EC50 in test [1] came to 8.3 nM; in [7], 0.167 nM; in test [8] it was 10.6 nM; in test [9] it was 0.153 nM. The binding result in test [2], in test [4] and in test [6] was “no binding (tested: 4000 pM)” in each case. In addition, the “EC50 (read off the curve)” value in test [3] and in [5] was approximately 0.2 nM throughout.
